Test: soluble on expression in E. coli; label from the status in PepcDB or PDB records

| Sequence | soluble on expression in E. coli |
| --- | --- |
| MKRYGNLYQEIINFENILIASRQAQKSKRFRDNVLDFNYHLETELIKLQKHLTDKTYQPGAYRTFRLTNPKSRLISAAPYRDRVVHHALCNIIVPIFERAFVADSYANRIGFGTHRALKKFTHSARNSPYVLQCDIRKYFPSIDHIILKELIRRKIKCPDTLWLIDTIIDNSNEQETVIDYFAGDDLLSPITRRKGLPIGNLTSQFFANIYLNGFDKIIKEELKISKYVRYVDDFALFSDDRELLADARLAIEAYLAELRLKIHPIKSQLFETKIGATFLGFRIFSHKIRVRNSNLHQARRRLKRLKTDYAQGKLELNQVTQSMRSWIAHLEHGDTWRLRKQIFTSLHFRRKLEHHHHHH | soluble |
| MKSFILGPLGLLVAICCLYQPADAALAAMSIDLGSQFIKIGLVKPGVPMDIVLNKESRRKTPNVISFKNDERFFAEAAAAMSSSHPQSSYNFLLSMIARKEGDDAFVTFQKTFPFTAFEFDEVRKTVVFPYKEEKYNVETLLAMILWNAKKVTEAYADQTVKDVVITVPIFLNQAERRAIASAAEIAGLNLLQLLNDGSAAALNYGVFRRKEITEKPTHMLIYDMGAVKTTATIVQYVLESTRKDGKDKQPTLRTVGVGFDKTLGGLEITNRLRDHLEKVFRDTVKTSKDISTNARAIGKLHKEAERVKQVLSANKDTYAQVESLFEEQNFRAKVTREELEKMIEDLEPRIAAPILDAIGMAQISTNDIDLVVLMGAGTRVPKVKEILKTILKDKEISNFLNTDEAIAMGAVYQAAHLSKSFKVLPFNVHEKILYPVFVNFLTKTEEGTMKPIRKSLFGENYPVPNRVMHFSSYSDDFKIDIQDADKNPLSTVEISGVKDAIEKEVTDENSVLKGVKTTFSIDLSGIVSVEKASVVVEKVPTPEEKDKYEVDKKEFDEWEKEQEELKKKEKAEKKEKEEKKKTEGEEEKNEDAAGEEKTEEKTEEVEKPVVVKKTKPVEPKAKKINVALTIKETKTDNIDLNEEEVTAAKKVLGDFEQKEKEKHDREEAMNRLEGLLYDLAVRLEDGEEYAEYATEEEKKAILEEVAVLKLWFEDDVSLETKKEEFDEKRAKLEELTAKPNARKQERLDIPKVAEIIEDHFNRSMTFHAMALNLTQFEEGNKTFTDTELEVLTKLIESTTEWWNEKKDLFEKQAKNEDPVVKASEIAEKARDLEREVRYLVNKLKIASSKKSKESEKKKKTKKEKDTVKERKEEETTETTTEDQANEQQTPPPFENDNTKDDESASTEEPKKDTEHDASEL | not soluble |
| MKSLIDHFDIASAKVQSLVQETLHHADDGELYLEYTESETLLFDNRQLKNGSFHQDMGFGLRVVAGEATGYAHSSELSAAALKRASEAAKTVTYKNHAGPYSVAPQQTNKKLYQPHNPLNAPSFEEKSALLQKIDDYLRAKNDKLHQVTVSLSGSLQHVEILRADGNLVRDIRPLVRLSISVVAAEGNRRENGFYGCGGRQAFSQFISEENWKKAADEALRMALINLEAEAAPAGTFDVVLANGWPGVMLHEAVGHGLEGDFNRKKTSAFSGLLGQQVAAKGVTVVDDGTIPKCRGSLTIDDEGTPSGYNILIENGKLVGFMQDRLNARLMGVNPTGNGRRESYAYAPMPRMTNTIMLGGDKTPEEILSSLKSGIYAVSFGGGQVDITSGKFVFECTEAYRVENGKIVAPIKGATLIGNGPEAMKRITMIGNDSKLDNGIGTCGKAGQSVPVGVGQPHLRINNMTIGGTELT | not soluble |
| MKSLPYTIALLFCGLIIVSMAAKGHSTDTDESVQKWEQLAWSKIQDEYKGASFSDYAYMGRTEVNDQQTKDVFRVTVRQKDDTFSVRAEVYFHPVTNHMISINVFRLMAGDPLEHHHHHH | soluble |
| MKSLVKVSLAALALAFAVSAYAAEKELIVATDTAFVPFEFKQGDKYVGFDIDLWDAIAKKLDLKYTLKPMDFSGIIPALQTKNVDLALAGITITDERKKAVDFSDGYYNSGLLVMVKADNNDIKSEADLQGKVLAVKSGTGSVDYAKANIKTKDLRQFPNIDNAYLELGTGRADAVLHDTPNILYFIKTAGNGQFKAVGESIKAQQYGVAFPQGSDLREKVNAALKSLKEDGTYAEIYKKWFGVEPK | not soluble |
| MKSNKNEFLKLLTAYQGIIHKVNRIYFRSEADREDNFQETVYQLWRSFPALQNKEKPASWIYTVAINTSISKVRKDSRIEFRDSPPDGEPVDPWEQQEQDENWQRLVNALQKLNEIDKSIMLLYMEDYSYEEIAGIVGISSSAVGVKIHRLKGQLQKQFKK | not soluble |
| MKSVQEKRNNTRAFKTVAKSWFATKTTWSEDYQRSVWTRLETYLFPDIGNKDIAELDTGDLLVPIKKIEKLGYLEIAMRVKQYATAIMRYAVQQKMIRFNPAYDLEGAVQKLEHHHHHH | soluble |
| MKTHQYELIDEKVFEHEFDNGLKLFIIPKPGFQKTYVTYTTQFGSLDNHFKPIGSQQFVKVPDGVAHFLEHKLFEKEDEDLFTAFAEENAQANAFTSFDRTSYLFSATSNIESNIKRLLNMVETPYFTEETVNKEKGIIAEEIKMYQEQPGYKLMFNTLRAMYSKHPIRVDIAGSVESIYEITKDDLYLCYETFYHPSNMVLFVVGDVSPQSIIKLVEKHENQRNKTYQPRIERAQIDEPREINQRFVSEKMKLQSPRLMLGFKNEPLDESATKFVQRDLEMTFFYELVFGEETEFYQQLLNKDLIDETFGYQFVLEPSYSFSIITSATQQPDLFKQLIMDELRKYKGNLKDQEAFDLLKKQFIGEFISSLNSPEYIANQYAKLYFEGVSVFDMLDIVENITLESVNETSELFLNFDQLVDSRLEMENR | soluble |
| MKTIIRYFSFVMGLMLTLPSFAKEKISIMLDWYVNPDHAAIIVAQQKGFFEKNNLEVEIIEPADPALPPKLAAAEKVDLAVSYQPQLYQQVAEGLPLVRVGSLISNPLNSVVVLKKSNLKSLADLKGKKVGYSVSGFEDGLLDTMLHSIGLSNKDVELVNVNWSLSPSLLTGQVDAVIGAFRNFELNQLALEKQEGIAFFPEQYGVPAYDELILVANKNSVTDKKTSAFLTALEQATSYLQAHPNEAWQAFVSYKPNELNTPLNQLAWKDTLPFLANKPRQLDAKRYQQMAEFMQQKGLIPKALALKEYAVEIELEHHHHHH | soluble |
| MKTLLEVKDLQVSFDTHAGEVQAVRGVTFDLKKGETLAIVGESGSGKSVTSKALMGLIPNPPGRIKNGEIVFEGRDLTKLTEKEMQQVRGKDIAMIFQDPMTSLNPTMTIGNQIMEGLIKHQGMSKADARKVALELIDLVGIPNPEARLKQYPHQFSGGMRQRVVIAMALACNPKLLIADEPTTALDVTIQAQILELMKDIQQKTEAAIIFITHDLGVVANVADRVAVMYAGKVVEIGTVDEIFYNPKHPYTWGLIASMPSLDGSEEELYAIPGTPPDLLKPPKGDAFAPRNPQALKIDFEMDPPLFKVSDTHYAATWLLHEQAPEVRPPAVVEKRILQMKAGEQHD | not soluble |
| MKTLMVFDPAMCCSTGVCGTDVDQALVDFSTDVQWLKQCGVQIERFNLAQQPMSFVQNEKVKAFIEASGAEGLPLLLLDGETVMAGRYPKRAELARWFGIPLDKVGLAPG | soluble |
| MKTLVELPLLPLRDVVVYPHMVIPLFVGREKSIEALEAAMTGDKQILLLAQKNPADDDPGEDGLYRMGTVATVLQLLKLPDGTVKVLVEGEQRGQVERFIEEEGHIRAAVQAIDDANVGEREAEVFTRSLLSQFEQYVQLGKKVPAEVLSSLNSIDEPSRLVDTMAAHMALKIEQKQDILEITDLSSRVEHVLALLDAEIDLLQVEKRIRGRVKKQMERSQREYYLNEQMKAIQKELGDIDEGHNEVEELKKRIDAAGLTKEAHTKATAELNKLKQMSPMSAEATVVRSYIDWLLNVPWKAESKVRHDLAKAEDILDADHYGLEEVKERILEYLAVQKRVKKLKGPVLCLVGPPGVGKTSLAESIARATNRKFVRMALGGVRDEAEIRGHRRTYIGSMPGRLIQKMTKVGVRNPLFLLDEIDKMGSDMRGDPASALLEVLDPEQNHNFNDHYLEVDYDLSDVMFLCTANSMNIPAPLLDRMEVIRLPGYTEDEKVNIAAKYLIPKQVQANGLKKGELTFEEGALRDIIRYYTREAGVRSLERQIAKVCRKAVKEHAKLKRIQAVVSSETLENYLGVRKFRYGLAEQQDQIGQVTGLAWTQVGGELLTIEAAVVPGKGQLTKTGSLGDVMAESITAALTVVRSRAQSLGIAADFHEKRDIHIHVPEGATPKDGPSAGIGMCTALVSAITQIPVRADVAMTGEITLRGQVLAIGGLKEKLLAAHRGGIKTVIIPEENVRDLKEIPDNIKSDLVIKPVKWIDEVLQIALQYAPEPLPDAAPEMVAKDEKREPDSKERIST | not soluble |
| MKTPALPTVQSPLLSSLPGVKHAFFTRQGGVSKGIYDSLNVGRGSQDEPADVEENRARIARWFGGGPEDLNVCYQIHSTIAIVADGSWGDARPEGDAVVSKTPGVICGAMAADCAPVLLVDPEARIVAAAHAGWRGALDGVVQSAVDRMVELGASPANITGVVGPCIGPKSYEVGLEFLHRFEADCPGSGRFFKPGASEDKRFFDLPAFVLDRLATAGVERREWVGRDTRAEEEWFFSNRRAFLNNDGDYGRLLSAITLEA | soluble |
| MKTRISSSRVRFSRYYLRIRESLISIPSRKNQFRFIRKNRFALQASFRSFTENSLTLSFMLLRRSPMKQSRTFLIF | not soluble |
| MKTVLVDWNLIPYAEAWQRQTEWFDTLVRAKAQGEAYENRIIMCEHPHVYTLGRSGKENNMLLNDDQLKAIQATLFHIDRGGDITYHGPGQLVCYPILNLEEFHLGLKEYVHLLEEAVIRVCASYGIEAGRLEKATGVWLEGSTPRARKICAIGVRSSHYVTMHGLALNVNTDLRYFSYIHPCGFIDKGVTSLRQELKHEVPMDEVKQRLECELGRLLNEKKQQIAQ | not soluble |
| MKVAVLPGDGIGPEVTEAALKVLRALDEAEGLGLAYEVFPFGGAAIDAFGEPFPEPTRKGVEEAEAVLLGSVGGPKWDGLPRKIRPETGLLSLRKSQDLFANLRPAKVFPGLERLSPLKEEIARGVDVLIVRELTGGIYFGEPRGMSEAEAWNTERYSKPEVERVARVAFEAARKRRKHVVSVDKANVLEVGEFWRKTVEEVGRGYPDVALEHQYVDAMAMHLVRSPARFDVVVTGNIFGDILSDLASVLPGSLGLLPSASLGRGTPVFEPVHGSAPDIAGKGIANPTAAILSAAMMLEHAFGLVELARKVEDAVAKALLETPPPDLGGSAGTEAFTATVLRHLA | soluble |
| MKVDRPSRSPFPQRIPQKFWKKINDENWIDVFDCKKIKERKQEFFWYKLDPLDLAKAVAMASQMNDRGVIPYPTPTLNDALNDHAALIRALNDSSIKKLFKEVRFFCTMRKRFSTIRNNPISVKREPTNF | soluble |
| MKVIDLSQTFENNMSQFPGTPKIQLKAVTSVEESGYQVTDFHSVVHVGTHCDAPAHFISGATTIDQLPLDQFVGEAVLIDVTHIQERKLPKTVLHNTDIKEGDIVIFHSNLSTKWNTEAYEKEAFYLSEELAKELVRLKVKSIGLDFISPDEVTTETSPIHHILLGNDIYLIENLTNLDAIEEKRFFFSAAPLKIKNSDGAFARAFAVIFLEHHHHHH | soluble |
| MKVIINGKEFDIPKGVRFGELSHEIEKAGIEFGCTDGQCGVCVARVIKGMECLNEPSEEEEETLWRVGAVDEDQRLTCQLVIEKEDCDEIVIESED | not soluble |
| MKVLCYGVRDVELPIFEACNKEFGYDIKCVPDYLNTKETAEMAAGFDAVILRGNCFANKQNLDIYKKLGVKYILTRTAGTDHIDKEYAKELGFPMAFVPRYSPNAIAELAVTQAMMLLRHTAYTTSRTAKKNFKVDAFMFSKEVRNCTVGVVGLGRIGRVAAQIFHGMGATVIGEDVFEIKGIEDYCTQVSLDEVLEKSDIITIHAPYIKENGAVVTRDFLKKMKDGAILVNCARGQLVDTEAVIEAVESGKLGGYGCDVLDGEASVFGKDLEGQKLENPLFEKLVDLYPRVLITPHLGSYTDEAVKNMVEVSYQNLKDLAETGDCPNKIK | soluble |
